# In article PMC4359615 (Journal of Structural Biology, 2015):
# B1: A135 subunit of RNA polymerase I (natural protein, S. cerevisiae)
# chain: MSKVIKPPGQARTADFRTLERESRFINPPKDKSAFPLLQEAVQPHIGSFNALTEGPDGGLLNLGVKDIGEKVIFDGKPLNSEDEISNSGYLGNKLSVSVEQVSIAKPMSNDGVSSAVERKVYPSESRQRLTSYRGKLLLKLKWSVNNGEENLFEVRDCGGLPVMLQSNRCHLNKMSPYELVQHKEESDEIGGYFIVNGIEKLIRMLIVQRRNHPMAIIRPSFANRGASYSHYGIQIRSVRPDQTSQTNVLHYLNDGQVTFRFSWRKNEYLVPVVMILKALCHTSDREIFDGIIGNDVKDSFLTDRLELLLRGFKKRYPHLQNRTQVLQYLGDKFRVVFQASPDQSDLEVGQEVLDRIVLVHLGKDGSQDKFRMLLFMIRKLYSLVAGECSPDNPDATQHQEVLLGGFLYGMILKEKIDEYLQNIIAQVRMDINRGMAINFKDKRYMSRVLMRVNENIGSKMQYFLSTGNLVSQSGLDLQQVSGYTVVAEKINFYRFISHFRMVHRGSFFAQLKTTTVRKLLPESWGFLCPVHTPDGSPCGLLNHFAHKCRISTQQSDVSRIPSILYSLGVAPASHTFAAGPSLCCVQIDGKIIGWVSHEQGKIIADTLRYWKVEGKTPGLPIDLEIGYVPPSTRGQYPGLYLFGGHSRMLRPVRYLPLDKEDIVGPFEQVYMNIAVTPQEIQNNVHTHVEFTPTNILSILANLTPFSDFNQSPRNMYQCQMGKQTMGTPGVALCHRSDNKLYRLQTGQTPIVKANLYDDYGMDNFPNGFNAVVAVISYTGYDMDDAMIINKSADERGFGYGTMYKTEKVDLALNRNRGDPITQHFGFGNDEWPKEWLEKLDEDGLPYIGTYVEEGDPICAYFDDTLNKTKIKTYHSSEPAYIEEVNLIGDESNKFQELQTVSIKYRIRRTPQIGDKFSSRHGQKGVCSRKWPTIDMPFSETGIQPDIIINPHAFPSRMTIGMFVESLAGKAGALHGIAQDSTPWIFNEDDTPADYFGEQLAKAGYNYHGNEPMYSGATGEELRADIYVGVVYYQRLRHMVNDKFQVRSTGPVNSLTMQPVKGRKRHGGIRVGEMERDALIGHGTSFLLQDRLLNSSDYTQASVCRECGSILTTQQSVPRIGSISTVCCRRCSMRFEDAKKLLTKSEDGEKIFIDDSQIWEDGQGNKFVGGNETTTVAIPFVLKYLDSELSAMGIRLRYNVEPK
# B2: A49 subunit of RNA polymerase I (natural protein, S. cerevisiae)
# chain: MSVKRSVSEIEIESVQDQPSVAVGSFFKGFRAPSDTTFDLYKKKKSEKDEFVLHGENERLEYEGYTDSSSQASNQYVVGLFNPEKKSIQLYKAPVLVSKVVSKSSKNLRGPKIKSKSDTRPSALRNALGEAFGTKKAKKAIADLERNRIDSDKLTDSAIDIVDSVRTASKDLPTRAQLDEITSNDRPTPLANIDATDVEQIYPIESIIPKKELQFIRVSSILKEADKEKKLELFPYQNNSKYVAKKLDSLTQPSQMTKLQLLYYLSLLLGVYENRRVNNKTKLLERLNSPPEILVDGILSRFTVIKPGQFGRSKDRSYFIDPQNEDKILCYILAIIMHLDNFIVEITPLAHELNLKPSKVVSLFRVLGAIVKGATVAQAEAFGIPKSTAASYKIATMKVPFKLPEMTRRGRGPRR
# Legend:
# [1] = target: A190 subunit of RNA polymerase I (S. cerevisiae, UniProt P10964 1-1664); assay: cross-linking
# [2] = target: B1; assay: cross-linking
# A190 subunit of RNA polymerase I, sequence (P10964 whole entry): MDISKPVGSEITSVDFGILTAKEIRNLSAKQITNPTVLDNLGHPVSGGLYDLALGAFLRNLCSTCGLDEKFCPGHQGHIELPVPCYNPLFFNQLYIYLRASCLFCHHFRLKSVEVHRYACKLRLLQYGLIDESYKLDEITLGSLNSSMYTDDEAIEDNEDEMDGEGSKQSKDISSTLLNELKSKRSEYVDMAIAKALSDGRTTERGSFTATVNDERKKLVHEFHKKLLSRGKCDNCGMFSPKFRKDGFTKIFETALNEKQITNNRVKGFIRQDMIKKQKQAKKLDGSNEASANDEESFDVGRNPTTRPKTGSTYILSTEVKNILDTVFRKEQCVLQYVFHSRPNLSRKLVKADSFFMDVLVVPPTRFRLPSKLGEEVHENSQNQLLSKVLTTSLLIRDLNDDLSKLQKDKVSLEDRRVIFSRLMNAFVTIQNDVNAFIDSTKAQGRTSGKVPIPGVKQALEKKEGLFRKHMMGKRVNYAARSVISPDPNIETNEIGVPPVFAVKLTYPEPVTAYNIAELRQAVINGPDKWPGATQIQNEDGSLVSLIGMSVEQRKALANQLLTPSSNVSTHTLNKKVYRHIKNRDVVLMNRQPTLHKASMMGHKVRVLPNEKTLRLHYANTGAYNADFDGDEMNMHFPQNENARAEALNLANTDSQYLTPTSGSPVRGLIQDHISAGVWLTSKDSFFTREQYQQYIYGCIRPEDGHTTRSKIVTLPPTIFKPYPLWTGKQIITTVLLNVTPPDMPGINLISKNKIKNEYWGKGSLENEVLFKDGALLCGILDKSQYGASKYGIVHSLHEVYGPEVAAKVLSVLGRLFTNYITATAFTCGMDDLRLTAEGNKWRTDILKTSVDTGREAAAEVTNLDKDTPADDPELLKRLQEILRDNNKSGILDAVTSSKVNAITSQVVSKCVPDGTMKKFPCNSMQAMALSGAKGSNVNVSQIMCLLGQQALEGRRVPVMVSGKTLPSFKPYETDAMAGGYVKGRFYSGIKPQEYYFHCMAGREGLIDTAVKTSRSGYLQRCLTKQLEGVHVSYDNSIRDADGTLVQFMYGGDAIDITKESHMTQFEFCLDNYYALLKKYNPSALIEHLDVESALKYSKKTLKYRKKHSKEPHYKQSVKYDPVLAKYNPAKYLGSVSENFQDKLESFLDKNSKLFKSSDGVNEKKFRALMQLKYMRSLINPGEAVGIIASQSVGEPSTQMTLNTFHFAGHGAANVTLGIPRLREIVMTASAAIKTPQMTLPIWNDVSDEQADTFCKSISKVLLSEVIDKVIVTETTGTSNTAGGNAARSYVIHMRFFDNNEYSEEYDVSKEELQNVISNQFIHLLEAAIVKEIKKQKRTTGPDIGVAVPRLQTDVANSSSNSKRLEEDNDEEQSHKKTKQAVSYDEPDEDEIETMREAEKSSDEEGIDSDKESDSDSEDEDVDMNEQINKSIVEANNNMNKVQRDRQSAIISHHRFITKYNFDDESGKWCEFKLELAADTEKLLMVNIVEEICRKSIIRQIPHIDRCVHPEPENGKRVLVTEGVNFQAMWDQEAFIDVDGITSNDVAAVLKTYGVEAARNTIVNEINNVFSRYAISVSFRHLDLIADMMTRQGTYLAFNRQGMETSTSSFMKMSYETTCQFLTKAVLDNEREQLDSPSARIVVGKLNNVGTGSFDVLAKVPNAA
binding result [1],binding result [2],Binder
binds,,B1
binds,binds,B2
